Assay results published in publication PMC8244865, “Recruitment of phospholipase Cγ1 to the non-structural membrane protein pK15 of Kaposi Sarcoma-associated herpesvirus promotes its Src-dependent phosphorylation” (PLoS Pathogens, 2021).
Non-standard residues stand in square brackets, D forms with d. No end group written: not given here. pY = N[C@@H](Cc1ccc(OP(=O)(O)O)cc1)C(=O)O

Tests used:
[1] = target: GST-fused pK15 cytoplasmic tail (pK15 CT WT), phosphorylated in vitro by Src (UniProt Q9QR69); assay: AlphaLISA; settings: read off a plot
[2] = test system: PLCγ1 tSH2 domain (Src-mediated phosphorylation, Y^783); assay: in vitro Src kinase assay, PLCγ1 tSH2 Y783 phosphorylation; assay type: biochemical; settings: 0.6 μM tSH2, 0.085 μM Src, 1.25–5 μM peptide or fixed 5.0 μM; 37°C; 1 hour or 45 min (method); pY783 Western blot
Experimental: Fig 7 The pK15 CT domain enhances Src-mediated phosphorylation of the PLCγ1 tSH2 domain. (A) The purified PLCγ1 tSH2 domain (0.6 μM) was incubated with limiting amounts (0.085 μM) of recombinant purified Src kinase expressed in insect cells in the presence of increasing concentrations (1.25–5 μM) of phosphorylated peptides representing the last 12 (pK15 12mer) or 35 (pK15 35mer) amino acids of the pK15 cytoplasmic domain for 1 hour at 37°C. The reaction was stopped using SDS sample buffer and analysed by SDS-PAGE and Western blot using an antibody to the PLCγ1 pY^783 residue (top panel) or to the His tag on the recombinant tSH2 domain (bottom panel). (B) Same as above, except that a fixed concentration (5.0 μM) of the 12mer peptide, the 35mer peptide or the pK15 truncation construct GST-pK15 CT^N2 [51] were used. The increased phosphorylation of the tSH2 domain in the presence of the 35mer peptide and pK15 CT^N2 can be seen. (C) Increasing concentrations of the phosphorylated pK15 12mer peptide were used to inhibit the increased src-mediated phosphorylation of tSH2 induced by 2.5 μM of the pK15 35mer peptide. Experimental conditions were as in panel A.
To test the impact of a pK15 CT fragment (pK15 CT^N2) or phosphorylated pK15 peptides representing the last 12 (DDLp[…]) or 35 ([…]pYEEVLFRN) amino acids of pK15 CT on the Src-mediated phosphorylation of the PLCγ1 tSH2 domain, GST-pK15CT^N2 was first phosphorylated with Src in vitro as described in the preceding paragraph. Phosphorylated GST-pK15 CT^N2 or the phosphorylated pK15 peptides, suspended in 50 mM Tris pH7.4, 300 mM NaCl, 1 mM DTT, were then added to the purified recombinant tSH2 domain (0.6 μM) together with a limiting amount of recombinant Src kinase (0.085 μM) in kinase buffer (20 mM Tris pH7.4, 20 mM NaCl, 1 mM DTT, 10 mM MgCl2, 0.2 mM ATP, 0.5 mM Sodium orthovanadate, 0.5 mM β-glycerophosphate) and the reaction allowed to proceed for 45 min. The reaction mix was then analysed by Western blot using an antibody to the phosphorylated Y^783 in the linker region of the PLCγ1 tSH2 domain and an antibody to the 5x His tag. To test the inhibitory effect of the phosphorylated 12mer pK15 peptide on the enhancement of PLCγ1 tSH2 domain phosphorylation induced by the pK15 35mer peptide, increasing concentrations (1.25–5.0 μM) of the 12mer peptide were added to a reaction mix containing the purified recombinant tSH2 domain (2.5 μM), the phosphorylated pK15 35mer (2.5 μM), and recombinant Src kinase (0.085 μM). Following a 45 min incubation at 37°C, the reaction mixture was analysed by Western blot as above.

[3] = target: GST-pK15 CT N2 truncation mutant, phosphorylated in vitro by 2xStrep-Src (UniProt Q9QR69); assay: AlphaLISA; settings: parent: est. 17000; read off a plot
[4] = target: T1, PLCγ1 tSH2 domain (aa 545-790) (UniProt P19174 545-790); assay: microfluidic diffusional sizing (Fluidity One-W); 200 nM 5,6-FAM peptide held constant, PLCγ1 domains varied from 0 nM to 8000 nM, room temperature, 100 mM MES, 150 mM NaCl, 3 mM TCEP, pH 6.5; hydrodynamic radius fitted; triplicate; settings: both partners purified
T1 construct: also called WT tSH2; source: E. coli BL21(DE3), purified (HisTrap, 3C cleavage, SEC)
T1 sequence (looked up): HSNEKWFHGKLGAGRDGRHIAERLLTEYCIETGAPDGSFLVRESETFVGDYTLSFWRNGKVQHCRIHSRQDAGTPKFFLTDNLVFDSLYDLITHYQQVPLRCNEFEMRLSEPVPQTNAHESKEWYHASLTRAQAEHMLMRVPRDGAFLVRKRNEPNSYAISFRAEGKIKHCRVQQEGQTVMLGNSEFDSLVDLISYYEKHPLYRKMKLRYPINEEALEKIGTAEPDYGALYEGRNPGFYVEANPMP

[5] = target: T2, PLCγ1 cSH2 domain (aa 668-790) (UniProt P19174 668-790); assay: as above; settings: both partners purified
T2 construct: PLCγ1 C-terminal SH2 domain with the cSH2-SH3 linker, residues 668-790; 15N-labelled for the NMR titration; also called cSH2 (668–790); source: E. coli BL21(DE3), purified (HisTrap, 3C cleavage, SEC)
T2 sequence (looked up): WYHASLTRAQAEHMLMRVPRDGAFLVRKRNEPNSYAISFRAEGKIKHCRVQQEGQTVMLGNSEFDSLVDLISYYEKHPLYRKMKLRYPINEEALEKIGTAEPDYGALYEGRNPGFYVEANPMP

[6] = target: T3, PLCγ1 tSH2 R694L (aa 545-790) (UniProt P19174 545-790, R694L); assay: as above; settings: both partners purified
T3 construct: source: E. coli BL21(DE3), purified (HisTrap, 3C cleavage, SEC)
T3 sequence (looked up): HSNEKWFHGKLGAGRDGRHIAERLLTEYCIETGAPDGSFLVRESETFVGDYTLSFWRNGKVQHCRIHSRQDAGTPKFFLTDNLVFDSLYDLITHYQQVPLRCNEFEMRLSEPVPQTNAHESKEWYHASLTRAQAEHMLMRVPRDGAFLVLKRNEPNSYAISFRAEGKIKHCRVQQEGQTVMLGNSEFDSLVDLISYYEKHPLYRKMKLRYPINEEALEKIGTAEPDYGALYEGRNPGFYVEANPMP

[7] = target: T4, PLCγ1 tSH2 R586L (aa 545-790) (UniProt P19174 545-790, R586L); assay: as above; settings: both partners purified
T4 construct: source: E. coli BL21(DE3), purified (HisTrap, 3C cleavage, SEC)
T4 sequence (looked up): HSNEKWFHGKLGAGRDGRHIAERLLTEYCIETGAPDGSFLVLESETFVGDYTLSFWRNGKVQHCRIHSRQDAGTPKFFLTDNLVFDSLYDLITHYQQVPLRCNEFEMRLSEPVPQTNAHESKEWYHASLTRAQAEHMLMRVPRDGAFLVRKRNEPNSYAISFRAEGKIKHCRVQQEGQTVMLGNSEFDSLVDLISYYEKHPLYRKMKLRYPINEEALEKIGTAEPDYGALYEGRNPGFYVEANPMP

[8] = target: T5, PLCγ1 nSH2 domain (aa 545-662) (UniProt P19174 545-662); assay: as above; settings: both partners purified
T5 construct: 15N-labelled for the NMR titration; source: E. coli BL21(DE3), purified (HisTrap, 3C cleavage, SEC)
T5 sequence (looked up): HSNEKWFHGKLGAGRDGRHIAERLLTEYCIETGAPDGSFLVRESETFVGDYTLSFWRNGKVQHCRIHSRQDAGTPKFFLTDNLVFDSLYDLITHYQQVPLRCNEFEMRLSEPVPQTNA

[9] = target: T6, GST-pK15 CT N2 truncation mutant, phosphorylated in vitro by 2xStrep-Src, Q9QR69; assay: AlphaLISA; settings: chain shown with the change;, read off a plot
T6 chain: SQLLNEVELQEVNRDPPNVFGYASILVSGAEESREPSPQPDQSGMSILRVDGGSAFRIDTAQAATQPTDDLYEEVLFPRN

[10] = target: T7, GST-fused pK15 cytoplasmic tail (pK15 CT WT), phosphorylated in vitro by Src, Q9QR69; assay: AlphaLISA; settings: chain shown with the change;, read off a plot
T7 chain: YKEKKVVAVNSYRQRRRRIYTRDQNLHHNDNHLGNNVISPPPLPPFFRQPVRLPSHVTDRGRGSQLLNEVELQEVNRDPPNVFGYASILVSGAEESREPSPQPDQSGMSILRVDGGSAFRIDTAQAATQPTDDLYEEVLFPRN

Work on “His-tagged purified PLCγ1 SA (γ-specific array) R694L” yielded a response ([1]; parent: est. 4000) of 1400.

“His-tagged purified PLCγ1 tandem SH2 (tSH2) domain R586L; R694L” gave a response ([1]; parent: est. 13000) of 350.

In the case of “SILRVDGGSAFRIDTAQAATQPTDDLpYEEVLFRN [pK15 35mer, phosphorylated pK15 peptide corresponding to the last 35 amino acids of pK15 CT]”, the “effect on Src-mediated phosphorylation of PLCγ1 tSH2” value [2] is reported as “enhanced the Src-mediated phosphorylation of the PLCγ1 tSH2 domain in a dose dependent manner”.

“His-tagged purified PLCγ1 tandem SH2 (tSH2) domain R694L” was tested, and the response ([1]; parent: est. 13000) was 850.

Work on “His-tagged purified PLCγ1 cSH2 domain R694L” yielded a response ([1]; parent: est. 19000) of 1000 and a response [3] of 250.

With “His-tagged purified PLCγ1 SA (γ-specific array) R586L; R694L” the response ([1]; parent: est. 4000) was 700.

B1: 5,6-FAM-labelled phosphorylated pK15 12mer peptide (peptide)
peptide: {5,6‑FAM}-DDL[pY]EEVLFPRN
notes: last 12 residues of KSHV pK15 cytoplasmic tail; also called 5,6-FAM-labelled pK15 (12mer); phosphorylated pK15 peptide; source: synthetic peptide, bought: Caslo ApS
For B1, the Kd [4] was 1500 ± 450 nM, the Kd [5] was 166 ± 30 nM and the Kd [6] was 6320 ± 475 nM. For the same molecule, the Kd [7] was 440 ± 77 nM and the Kd [8] was 180 ± 43 nM.

B2: His-tagged purified PLCγ1 SA (γ-specific array) R586L (protein)
chain: SIKNGILYLEDPVNHEWYPHYFVLTSSKIYYSEETSSDQGNEDEEEPKEVSSSTELHSNEKWFHGKLGAGRDGRHIAERLLTEYCIETGAPDGSFLVLESETFVGDYTLSFWRNGKVQHCRIHSRQDAGTPKFFLTDNLVFDSLYDLITHYQQVPLRCNEFEMRLSEPVPQTNAHESKEWYHASLTRAQAEHMLMRVPRDGAFLVRKRNEPNSYAISFRAEGKIKHCRVQQEGQTVMLGNSEFDSLVDLISYYEKHPLYRKMKLRYPINEEALEKIGTAEPDYGALYEGRNPGFYVEANPMPTFKCAVKALFDYKAQREDELTFIKSAIIQNVEKQEGGWWRGDYGGKKQLWFPSNYVEEMVNPVALEPEREHLDENSPLGDLLRGVLDVPACQIAIRPEGKNNRLFVFSISMASVAHWSLDVAADSQEELQDWVKKIREVAQ
B2 was tested, and the response ([9]; parent: est. 700) was 300 and the response ([10]; parent: est. 4000) was 3800.

B3: His-tagged purified PLCγ1 tandem SH2 (tSH2) domain R586L (protein)
chain: HSNEKWFHGKLGAGRDGRHIAERLLTEYCIETGAPDGSFLVLESETFVGDYTLSFWRNGKVQHCRIHSRQDAGTPKFFLTDNLVFDSLYDLITHYQQVPLRCNEFEMRLSEPVPQTNAHESKEWYHASLTRAQAEHMLMRVPRDGAFLVRKRNEPNSYAISFRAEGKIKHCRVQQEGQTVMLGNSEFDSLVDLISYYEKHPLYRKMKLRYPINEEALEKIGTAEPDYGALYEGRNPGFYVEANPMP
With B3 the response ([9]; parent: est. 14000) was 12000 and the response ([10]; parent: est. 13000) was 9800.
